The record followed here is patent publication US20250340646A1 (ELPIS BIOPHARMACEUTICALS, published 2025).

Residue numbers refer to the chain shown, from its start. Names may count otherwise. Like-named read-outs stand apart in the source and are kept apart here.

The target of assay [1] is T1, full-length human PD-L1 on K562 cells (human, UniProt Q9NZQ7 19-290).
T1 construct: also called PD-L1/K562; cell surface human PD-L1
Briefly: FACS, PD-L1/K562 cells. On the procedure: (§1) Cells were spun down at 1200 rpm for 5 minutes at 4° C. to remove primary antibodies. Cells were then washed once with 200 μL of full medium per well. […] Samples were spun down at 1200 rpm for 5 minutes at 4° C. and washed twice with 200 μL of 1×PBS per well. Samples were reconstituted in 200 μL of 1×PBS and were read on Attune NxT cytometer.
(In general: Flow cytometry measures light scatter and fluorescence of single cells or particles in a stream.)

Assay [2] deals with T2, human PD-L1-HIS tagged recombinant protein (human, UniProt Q9NZQ7 19-238).
T2 construct: also called hPD-L1-HIS; PD-L1 HIS tagged protein
Briefly: SPR, Protein A capture, PD-L1-HIS analyte. As to the method:
(§2) The assay was run with Biacore T200 control software version 2.0. For each cycle, 1 μg/mL of anti-hPD-L1/IL-2 was captured for 60 seconds at flow rate of 10 μL/min on flow cell 2 in 1×HBSP buffer on Protein A sensor chip. […] The flow cells were then regenerated with Glycine pH2 for 60 seconds at flow rate of 30 μL/min. […] The specific binding response unit was derived from subtraction of binding to reference flow cell 1 from antibody captured flow cell 2.
(In general: SPR reads the build-up and loss of mass on a sensor chip optically.)

Assay [3] has as its target T3, recombinant His-tagged human IL-2Rβ (human, UniProt P14784 27-240, limits assumed).
T3 construct: also called IL-2Rβ-HIS; IL-15Rβ-HIS
T3 sequence (looked up): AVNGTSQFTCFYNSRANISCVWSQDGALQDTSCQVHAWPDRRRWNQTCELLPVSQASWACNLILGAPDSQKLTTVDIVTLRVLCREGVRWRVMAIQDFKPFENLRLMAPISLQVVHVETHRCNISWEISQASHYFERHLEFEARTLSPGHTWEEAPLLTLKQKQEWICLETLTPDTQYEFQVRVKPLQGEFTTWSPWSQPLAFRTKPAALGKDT
Briefly: ELISA, coated His-tagged IL-2Rβ. On the procedure: For monovalent IL-2 Fc-fusion proteins, recombinant His-tagged human IL-2Rα and IL-2Rβ were added in 25 μL of 1×PBS to wells of 384-well plate and incubated overnight at 4° C. to coat the plates. Plates were washed three times with 0.05% Tween20/1×PBS. Plates were blocked with 100 μL of SuperBlock for 1 hr at RT and then washed 3 times with 0.05% Tween20/1×PBS. IL-2 mutants were diluted in 0.05% Tween 20/1×PBS from 1000 nM to 0 nM and added to plates for 2 hrs at room temperature. Plates were then washed 6 times with 0.05% Tween20/1×PBS. Anti-HisTag-HRP was diluted 1:5000 in 0.05% Tween20/1×PBS and added to plates for 1 hr at RT. Plates were then washed 6 times with 0.05% Tween 20/1×PBS, and TMB was added to develop blue color. Reactions were stopped with 2N […] and light absorbance at 450 nm was read on a BioTek plate reader. Absorbance versus IL-2 concentration is graphed for human IL-2Rα and IL-2Rβ. […]
For orientation: In an ELISA, binding on a coated surface is turned into a signal by an enzyme label.

The target of assay [4] is T4, PD-L1 biotinylated (PD-1/PD-L1 TR-FRET assay kit, BPS 72038) (Homo sapiens (Human), UniProt Q9NZQ7 19-238, biotinylated; site not stated).
T4 construct: Kit reagent
Briefly: HTRF competition, competitor PD-1-Eu. As to the method: Briefly, 1× Immuno buffer 1 was made. […] For each well in 384-well plate, serial diluted scFvs and regents were added according to manufacturer's recommended volume. Samples were incubated at room temperature for 1.5 hours then the fluorescent intensity was read with Biotek Neo2 plate reader using manufacture's instrument setting for the assay.

Assay [5] addresses PD-L1 on PD-L1 aAPC/CHOK1 cells (Promega J1250). Briefly: cell-based or functional assay.
For assay [6], the target named is T3, recombinant His-tagged human IL-2Rβ. Briefly: SPR, Protein A capture, IL-2Rβ-HIS analyte. On the procedure: as §2
The target of the next assay is biotinylated PD-L1 (Homo sapiens (Human), UniProt Q9NZQ7 19-238, biotinylated; site not stated). Briefly: ELISA, anti-human Fc capture, biotinylated PD-L1. On the procedure: A 384 well plate was immobilized with anti-human Fc at final concentration of 2 μg/mL in 1×PBS in total volume of 25 μL per well. The plate was incubated overnight at 4C followed by blocking with 80 μL of superblock per well for 1 hour. […] In between each step, the plate was washed 3 times with 1×PBST in a plate washer. The plate was then developed with 25 μL of TMB substrate for 5 min and stopped by adding 25 μL of 2N sulfuric acid. The plate was read at OD450 nm Biotek plate reader and the binding correlation was plotted with Prism 8.1 software. The ELISA binding assays of the antibodies to IL-2Rα and IL-2Rβ receptors were performed as described in Example 6.

Assay [7] concerns the target T1, full-length human PD-L1 on K562 cells. Briefly: FACS, PD-L1/K562 cells. On the procedure:
as §1
The production, the binding, and all of the characterization assays for selected affinity matured scFv clones were performed as described above.
This is another data set of the same source.

B1: 2018EP164-F04 scFv (scFv, V domains shown)
VH: QVQLQQWGAGLLKPSETLSLTCAVYGGSFSGYYWSWIRQPPGKGLEWIGEINHSGSTNYNPSLKSRVTISVDTSKNQFSLKLSSVTAADTAVYYCARGRRLRYFDWAAYNWFDPWGQGTLVTVSS
VL: QSALTQDPAVSVALGQTVRITCQGDSLRSHYASWYQQKPGQAPVVVVYDNSDRPSGIPDRFSGSNSGNTATLTISRVEVGDEADYYCQVWDSSSDHYVFGTGTKV
Regarding B1, the EC50 (as a rule, the concentration at which the effect is half-maximal) in assay [1] is below 1 nM.

B2: 2018EP161-F08 scFv (scFv, V domains shown)
VH: not shown
VL: DIVMTQSPSSLSASVGDRVTITCRASQTVSTYINWYQQRSGKGPKLLIFDASRLQSGAPSRFSGSGSGTEFTLTITSLQPDDSATYYCQQSYRIPLSFGGGTKVEIR
Molecule B2 gave an EC50 in assay [1] of 7.72 nM.

B3: 2018EP173-H11 scFv (scFv, V domains shown)
VH: QVQLVQSGGGLVKPGGSLRLSCAASGFTFSSYSMNWVRQAPGKGLEWVSSISSSSSYIYYADSVKGRFTISRDNAKNSLYLQMNSLKAEDTAVYYCARDSLQWLALDYWGQGTLVTVSS
VL: QPVLTQPPSVSVAPGETATITCGGNNIGRKSVHWYLQKPGQAPVLVIGHDTDRPSGIPARFSGSNSGNTATLTINRVEAGDEADYYCQVWDTSGHHYVFGTGTKVTVL
notes: not shown: scFv linker and domain order of the library scFv
With B3, the EC50 in assay [1] amounted to 5.1 nM.

B4: IL-2/anti-PD-L1 scFv Fc EP290/EP326 (bispecific antibody)
chain 1: not shown
chain 2: QVQLVQSGAEVKKPGSSVKVSCKASGGTFSSYAISWVRQAPGQGLEWMGGIIPIFGTANYAQKFQGRVTITADESTSTAYMELSSLRSEDTAVYYCARDKWYGSAWRGDYWGQGTLVTVSSGGGGSGGGGSGGGGSQSVLTQPPSASGTPGQRVTISCSGSYSNIGSNFVNWYQQLPGTAPKLLIHFNNQRPSGVPDRFSGSRSGTSASLAISGLQSEDEADYFCSTWDDSLKGPIFGGGTKLTVLDKTHTCPPCPAPEAAGGPSVFLFPPKPKDTLMISRTPEVTCVVVDVSHEDPEVKFNWYVDGVEVHNAKTKPREEQYNSTYRVVSVLTVLHQDWLNGKEYKCKVSNKALGAPIEKTISKAKGQPREPQVCTLPPSRDELTKNQVSLSCAVKGFYPSDIAVEWESNGQPENNYKTTPPVLDSDGSFKLVSKLTVDKSRWQQGNVFSCSVMHEALHNHYTQKSLSLSPGK
notes: IL2-Fc knob with 2019EP69-F03 scFv-Fc hole (EP326)
Take B4: the Kd (in general, the equilibrium constant for the complex coming apart) in assay [2] is 0.464 nM; in assay [6] it was 57.4 nM. Also, the half-maximal effective concentration (EC50) in assay [3] came to 4.01 nM; with biotinylated PD-L1, 0.141 nM. For the same molecule, in assay [4], the IC50 (commonly the point on the concentration scale where inhibition reaches its midpoint) amounted to 176 nM. Also, the “NFAT reporter EC50” value in assay [5] worked out at 2.3 nM.

B5: IL-2/anti-PD-L1 scFv Fc EP417/EP326 (bispecific antibody)
chain 1: not shown
chain 2: B4 chain 2
notes: IL2 EP339
Take B5: the Kd in assay [2] came to 0.429 nM; in assay [6], 21.9 nM. Besides, the results for the EC50 (in assay [3]; in the assay with biotinylated PD-L1) were 0.515 nM and 0.188 nM, respectively.

B6: IL-2/anti-PD-L1 scFv Fc EP412/EP326 (bispecific antibody)
chain 1: not shown
chain 2: B4 chain 2
notes: IL2 with T3A/K35L/R38D/F42R
As for B6, the figures for the Kd in assay [2] and in assay [6] were 0.593 nM and 12000 nM, respectively. The figures for the EC50 (in assay [3]; in the assay with biotinylated PD-L1) were 2.18 nM and 0.156 nM, respectively. Also, the IC50 in assay [4] was determined as 134 nM. In assay [5], the “NFAT reporter EC50” value amounted to 2.61 nM.

B7: IL-2/anti-PD-L1 scFv Fc EP297/EP326 (bispecific antibody)
chain 1: not shown
chain 2: B4 chain 2
notes: IL2 EP001
As for B7, in assay [2], the dissociation constant (Kd) came out at 0.19 nM; the koff (usually the first-order rate constant of dissociation) worked out at 0.000149 s⁻¹; the kon (in general, the rate constant with which the complex forms) amounted to 782000 M⁻¹ s⁻¹. The EC50 in assay [3] came to 0.43 nM. For the same molecule, in assay [6], the Kd was found to be 3.32 nM, the koff was found to be 0.00854 s⁻¹ and the kon came out at 2.57e+06 M⁻¹ s⁻¹. In addition, in the assay with biotinylated PD-L1, the EC50 came out at 0.108 nM.

B8: IL-2/anti-PD-L1 scFv Fc EP414/EP326 (bispecific antibody)
chain 1: not shown
chain 2: B4 chain 2
notes: IL2 EP003 carrying K35L/R38D/F42R
For the molecule B8, the EC50 in assay [3] stood at 0.51 nM; in the assay with biotinylated PD-L1 it was 0.212 nM.

B9: IL-2/anti-PD-L1 scFv Fc EP291/EP326 (bispecific antibody)
chain 1: not shown
chain 2: B4 chain 2
notes: IL2 EP003
For the molecule B9, the Kd in assay [2] worked out at 0.34 nM; in assay [6] it was 1.87 nM. Also, the EC50 is 0.552 nM in assay [3] and 0.246 nM with biotinylated PD-L1.

B10: IL-2/anti-PD-L1 scFv Fc EP419/EP326 (bispecific antibody)
chain 1: not shown
chain 2: B4 chain 2
notes: IL2 EP343
B10: the EC50 stood at 0.613 nM in assay [3] and 0.206 nM in the assay with biotinylated PD-L1.

B11: IL-2/anti-PD-L1 scFv Fc EP416/EP326 (bispecific antibody)
chain 1: not shown
chain 2: B4 chain 2
notes: IL2 EP338
For B11, the results for the Kd in assay [2] and in assay [6] were 0.39 nM and 26.5 nM, respectively. The EC50 in assay [3] worked out at 1.24 nM; in the assay with biotinylated PD-L1, 0.298 nM.

B12: 2018EP171-H02 scFv (scFv, V domains shown)
VH: QVQLVQSGAEVKKPGSSVKVSCKASGGTFSSYAISWVRQAPGQGLEWMGGIIPIFGTANYAQKFQGRVTITADESTSTAYMELSSLRSEDTAVYYCARDKGYGSGWRGDYWGQGTLVTVSS
VL: QSVLTQPPSASGTPGQRVTISCSGSYSNIGSNFVNWYQQLPGTAPKLLIHFNNQRPSGVPDRFSGSRSGTSASLAISGLQSEDEADYFCSTWDDSLKGPIFGGGTKLTVL
For B12, the EC50 in assay [7] and in assay [1] was 0.25 nM throughout.

B13: 2018EP172-F10 scFv (scFv, V domains shown)
VH: B12 VH with V2M
VL: B12 VL with N52D
On to B13, for which the EC50 in assay [1] was below 1 nM.

B14: 2019EP69-E10 scFv (scFv, V domains shown)
VH: B12 VH with Y102F
VL: B12 VL
On to B14, for which the concentration giving a half-maximal response (EC50) in assay [7] was 0.207 nM.

B15: 2019EP69-F02 scFv (scFv, V domains shown)
VH: B12 VH with G101W
VL: B12 VL
As for B15, the EC50 in assay [7] is 2 nM.

B16: 2019EP69-H10 scFv (scFv, V domains shown)
VH: B12 VH with G101W, Y102F
VL: B12 VL
As for B16, a half-maximal effect in assay [7] (EC50) was put at 0.0799 nM.
